Consider 11 molecules from publication PMC9050003, “N- and C-terminal regions of the small heat shock protein IbpA from Acholeplasma laidlawii competitively govern its oligomerization pattern and chaperone-like activity†” (RSC Advances, 2020).

Series [1] concerns the target AlIbpAΔN25C14 (Acholeplasma laidlawii). The experiment in a line: SEC; Superdex 200 10/300, 0.5 ml min^−1, 1 mg ml^−1 protein, 100 μl injected; 50 mM NaCl, 50 mM KCl, 50 mM K2HPO4 pH 7.4; 30 °C; fractions as areas under the peaks; peaks also viewed by TEM. In general terms: Size exclusion chromatography separates by hydrodynamic size, large species first.
In series [2] the target is AlIbpAΔC14 (Acholeplasma laidlawii). Described as above.
The target is the same in series [3]. The experiment in a line: SPR; BIAcore T200; His6-AlIbpA proteins immobilised on Ni2+-loaded NTA chip (FC2, about 2000 RU); His6-TnrA20 on FC1 as control, response difference FC2 − FC1; ADH 1.0 mg ml^−1 injected at 10 μl min^−1; 10 mM Na2HPO4, 150 mM NaCl, pH 7.4; KD calculated from the binding curve slopes.
The target of series [4] is AlIbpAΔN12 (Acholeplasma laidlawii) (UniProt A9NFB2). The description is as above.
Series [5] has as its target AlIbpAN11N12 (Acholeplasma laidlawii) (UniProt A9NFB2). The description is as above.
The target in series [6] is full-length recombinant AlIbpA (small heat shock protein IbpA from Acholeplasma laidlawii), His6-tagged (Acholeplasma laidlawii) (UniProt A9NFB2). The series is described as above.
The target in series [7] is AlIbpAΔN25 (Acholeplasma laidlawii) (UniProt A9NFB2). The series is described as above.
In series [8] the target is AlIbpASEPΔN12 (Acholeplasma laidlawii) (UniProt A9NFB2). The description is as above.
Series [9] deals with AlIbpASEPΔN25 (Acholeplasma laidlawii) (UniProt A9NFB2). Described as above.
Series [10] addresses AlIbpAΔN12C14 (Acholeplasma laidlawii). The experiment in a line: SEC; Superdex 200 10/300, 0.5 ml min^−1, 1 mg ml^−1 protein, 100 μl injected; 50 mM NaCl, 50 mM KCl, 50 mM K2HPO4 pH 7.4; 30 °C; fractions as areas under the peaks; peaks also viewed by TEM.
Series [11] concerns the molecule itself. The series is described as above.
Series [12] deals with the molecule itself. The series is described as above. The source holds these as a separate data set.

With AlIbpAΔN25C14 (domain or fragment), in [1], the fraction of the protein in I peak of the elution profile was 1% and the fraction of the protein in II peak of the elution profile stood at 50%.

In series [2], AlIbpAΔC14 (domain or fragment) gave a fraction of the protein in I peak of the elution profile of 7% and a fraction of the protein in II peak of the elution profile of 86%.

As a reminder, the Kd is a measure of binding affinity in units of concentration. alcohol dehydrogenase (enzyme): the Kd in [3] was 700 nM; in series [4], 3500 nM; in series [5], 500 nM; in series [6] it was 1600 nM; in [7] it was 2200 nM; in series [8], 7200 nM. In [9], the Kd is 3200 nM.

In series [10], AlIbpAΔN12C14 (domain or fragment) yielded a fraction of the protein in I peak of the elution profile of 1% and a fraction of the protein in II peak of the elution profile of 86%.

B1: AlIbpAΔN12 (domain or fragment, Acholeplasma laidlawii, UniProt A9NFB2 13-137, looked up)
chain: DDFFEDFNVLNPVTTSNLMRTDIKETQNGYSLSVELPGFKKEDVKVSLEDGYLTIEAHTSKNSETKDQATKYIRKERYEGTMKRSYYVGNLHLDEINGTFENGMLHIELPKETKKEPEKRYLELK
notes: AlIbpA of Acholeplasma laidlawii PG8 lacking the first 12 amino acid residues; source: E. coli BL21(DE3), purified (Ni-NTA); not shown: His6, N-terminal, kept
With B1, in [11], the “fraction of the protein in I peak of the elution profile” value was 88 ± 17.1% and the “fraction of the protein in II peak of the elution profile” value turned out to be 10 ± 1.1%.

B2: AlIbpASEPΔN12 (domain or fragment, Acholeplasma laidlawii, UniProt A9NFB2 13-137, looked up)
chain: DDFFEDFNVLNPVTTSNLMRTDIKETQNGYSLSVELPGFKKEDVKVSLEDGYLTIEAHTSKNSETKDQATKYIRKERYEGTMKRSYYVGNLHLDEINGTFENGMLHIELPKETKKEPEKRYSEPK
notes: AlIbpA of Acholeplasma laidlawii PG8 lacking 12 N-terminal amino acids and with LEL substituted by SEP (L134S, L136P); source: E. coli BL21(DE3), purified (Ni-NTA); not shown: His6, N-terminal, kept
Turning to B2, in series [11], the “fraction of the protein in I peak of the elution profile” value is 2 ± 0.8% and the “fraction of the protein in II peak of the elution profile” value stood at 59 ± 10.1%.

B3: AlIbpAΔN25 (domain or fragment, Acholeplasma laidlawii, UniProt A9NFB2 26-137, looked up)
chain: TTSNLMRTDIKETQNGYSLSVELPGFKKEDVKVSLEDGYLTIEAHTSKNSETKDQATKYIRKERYEGTMKRSYYVGNLHLDEINGTFENGMLHIELPKETKKEPEKRYLELK
notes: AlIbpA of Acholeplasma laidlawii PG8 with 25 N-terminal amino acids removed (lacks both (W/F)(D/F)PF-like motifs); source: E. coli BL21(DE3), purified (Ni-NTA); not shown: His6, N-terminal, kept
For the molecule B3, in series [11], the “fraction of the protein in I peak of the elution profile” value is 77 ± 21.3% and the “fraction of the protein in II peak of the elution profile” value came out at 12 ± 2.4%.

B4: AlIbpASEPΔN25 (domain or fragment, Acholeplasma laidlawii, UniProt A9NFB2 26-137, looked up)
chain: TTSNLMRTDIKETQNGYSLSVELPGFKKEDVKVSLEDGYLTIEAHTSKNSETKDQATKYIRKERYEGTMKRSYYVGNLHLDEINGTFENGMLHIELPKETKKEPEKRYSEPK
notes: AlIbpA of Acholeplasma laidlawii PG8 lacking 25 N-terminal amino acids and with LEL substituted by SEP (L134S, L136P); source: E. coli BL21(DE3), purified (Ni-NTA); not shown: His6, N-terminal, kept
Take B4: in series [11], the “fraction of the protein in I peak of the elution profile” value amounted to 69 ± 15.5% and the “fraction of the protein in II peak of the elution profile” value came out at 23 ± 3.2%.

B5: full-length recombinant AlIbpA (small heat shock protein IbpA from Acholeplasma laidlawii), His6-tagged (natural protein, UniProt A9NFB2 1-137, looked up)
chain: MLSLLNKNRSFFDDFFEDFNVLNPVTTSNLMRTDIKETQNGYSLSVELPGFKKEDVKVSLEDGYLTIEAHTSKNSETKDQATKYIRKERYEGTMKRSYYVGNLHLDEINGTFENGMLHIELPKETKKEPEKRYLELK
notes: small heat shock protein IbpA (AlIbpA) of Acholeplasma laidlawii PG8, full length; Legends call it AlIbpA-His6, the methods say the His6 tag is N-terminal; In solution a mixture of about 24-mer globules, fibrils and agglomerates; also called AlIbpA-His6; His6-IbpA; source: E. coli BL21(DE3), purified (Ni-NTA); also in E. coli BL21 pET-IbpA cells, cross-linked in the cells, crude cell extract; not …
In general, stoichiometry N refers to a count of units in the complex or per binding partner. Take B5: in series [12], the “stoichiometry N” value is around 24. In series [11], the “fraction of the protein in I peak of the elution profile” value came to 23 ± 10.3% and the “fraction of the protein in II peak of the elution profile” value is 74 ± 17.8%.

B6: AlIbpAN11N12 (natural protein, Acholeplasma laidlawii, UniProt A9NFB2 1-137, looked up)
chain: MLSLLNKNRSNNDDFFEDFNVLNPVTTSNLMRTDIKETQNGYSLSVELPGFKKEDVKVSLEDGYLTIEAHTSKNSETKDQATKYIRKERYEGTMKRSYYVGNLHLDEINGTFENGMLHIELPKETKKEPEKRYLELK
notes: AlIbpA of Acholeplasma laidlawii PG8 with F11F12 substituted by N11N12, complete N-terminus length kept; source: E. coli BL21(DE3), purified (Ni-NTA); not shown: His6, N-terminal, kept
B6: the “stoichiometry N” value in series [12] was around 24. Moreover, in [11], the “fraction of the protein in I peak of the elution profile” value came out at 8 ± 1.7% and the “fraction of the protein in II peak of the elution profile” value was 88 ± 12.2%.

B7: AlIbpASEP (natural protein, Acholeplasma laidlawii, UniProt A9NFB2 1-137, looked up)
chain: MLSLLNKNRSFFDDFFEDFNVLNPVTTSNLMRTDIKETQNGYSLSVELPGFKKEDVKVSLEDGYLTIEAHTSKNSETKDQATKYIRKERYEGTMKRSYYVGNLHLDEINGTFENGMLHIELPKETKKEPEKRYSEPK
notes: AlIbpA of Acholeplasma laidlawii PG8 with the C-terminal LEL motif substituted by SEP (L134 to S134, L136 to P136), length of the C-terminus kept; source: E. coli BL21(DE3), purified (Ni-NTA); not shown: His6, N-terminal, kept
Consider B7, for which, in series [11], the “fraction of the protein in I peak of the elution profile” value was found to be 18 ± 4.4% and the “fraction of the protein in II peak of the elution profile” value came out at 56 ± 7.8%.
